Data reported in patent publication US20220119517A1 (NANJING SANHOME PHARMACEUTICAL, published 2022).

Experiments:
[1] = target: T1, human Claudin18.2 (CLDN18.2), full length, on cells (human); assay: FACS on NUGC4 cells
T1 construct: also called CLDN18.2-FL; HEK293-CLDN18.2 cells
Source text: (§1) Human gastric cancer cells NUGC4 and stably transfected cells CHO-K1-CLDN18.1 (prepared in Example 5) were used respectively, to verify the specificity and affinity of the anti-CLDN18.2 antibodies above at the cellular level by FAGS technology. After antibody affinity maturation and screening in vitro, each antibody can bind to the CLDN18.2 target on NUGC4 cells, but not to CHO-K1-CLDN18.1 cells, as compared with the original 3CHI antibody.

[2] = target: T2, human Claudin18.1 (CLDN18.1), full length, on cells (human, UniProt P56856 1-261); assay: FACS on CHO-K1-CLDN18.1 cells
T2 construct: HEK293-CLDN18.1 cells carry a fusion with green fluorescent protein (ZsGreen); CHO-K1-CLDN18.1 cells carry pcDNA3.1-CLDN18.1; The cell line is named under assay; also called CLDN18.1-FL; HEK293-CLDN18.1 cells
Source text: as §1

[3] = target: T2, human Claudin18.1 (CLDN18.1), full …; assay: cellular ELISA

| MFI (CLDN18.2) [1] [MFI] | MFI (CLDN18.1) [2] [MFI] | binding result [3] | Binder |
| --- | --- | --- | --- |
| 44400 | 114 | no binding | 301CHI (antibody, V domains shown, chimeric with the constant region of human IgG1) VH: EVKLVESGGGLVQPGGSLKLSCAASGFTFSDYGMAWVRQAPRKGPEWVAFISNLAYSIYYADTVTGRFTISRENAKNTLYLEMSSLRSEDTAMYYCARLGYGNSFAYWGQGTLVTVSA VL: DIVMTQSPSSLTVTAGEKVTMSCKSSQSLLNSGNQKNYLTWYQQKPGQPPKLLIYWASTRESGVPDRFTGSGSGTDFTLTISSVQAEDLAVYYCQNNYYYPLTFGAGTKLELK |
| 42500 | 78 | no binding | 309CHI (antibody, human IgG1, V domains shown, chimeric with the constant region of human IgG1) VH: EVKLVESGGGLVQPGGSLKLSCAASGFGFSDYGMAWVRQAPRKGPEWVAFISNSAYSIYYADTVTGRFTISRENAKNTLYLEMSSLRSEDTAMYYCARLGYGNSFAYWGQGTLVTVSA VL: DIVMTQSPSSLTVTAGEKVTMSCKSSQSLLNSGNQKNYLTWYQQKPGQPPKLLIYWASTRESGVPDRFTGSGSGTDFTLTISSVQAEDLAVYYCQNELFYPLTFGAGTKLELK |
| 42300 | 65 | no binding | 315CHI (antibody, human IgG1, V domains shown, chimeric with the constant region of human IgG1) VH: EVKLVESGGGLVQPGGSLKLSCAASGFTFSDYGMAWVRQAPRKGPEWVAFISNLAYSIYYADTVTGRFTISRENAKNTLYLEMSSLRSEDTAMYYCARLGRGNSFAYWGQGTLVTVSA VL: DIVMTQSPSSLTVTAGEKVTMSCKSSQSLLNSGNQKNYLTWYQQKPGQPPKLLIYWASTRESGVPDRFTGSGSGTDFTLTISSVQAEDLAVYYCQNELFYPLTFGAGTKLELK |
| 38200 | 85 | no binding | 303CHI (antibody, V domains shown, chimeric with the constant region of human IgG1) VH: EVKLVESGGGLVQPGGSLKLSCAASGFTFSRYGMAWVRQAPGKGPEWVAFISNSAYSIYYADTVTGRFTISRENAKNTLYLEMSSLRSEDTAMYYCARLGYGNSFAYWGQGTLVTVSA VL: DIVMTQSPSSLTVTAGEKVTMSCKSSQSLLNSGNQKNYLTWYQQKPGQPPKLLIYWGSTRESGVPDRFTGSGSGTDFTLTISSVQAEDLAVYYCQNDYSYPLTFGAGTKLELK |
| 46300 | 299 | no binding | 321CHI (antibody, human IgG1, V domains shown, chimeric with the constant region of human IgG1) VH: EVKLVESGGGLVQPGGSLKLSCAASGFGFSDYGMAWVRQAPRKGPEWVAFISNSAYSIYYADTVTGRFTISRENAKNTLYLEMSSLRSEDTAMYYCARLGRGNSFAYWGQGTLVTVSA VL: DIVMTQSPSSLTVTAGEKVTMSCKSSQSLLNSGNQKNYLTWYQQKPGQPPKLLIYWASTRESGVPDRFTGSGSGTDFTLTISSVQAEDLAVYYCQNELFYPLTFGAGTKLELK |
| 44800 | 57 | no binding | 322CHI (antibody, human IgG1, V domains shown, chimeric with the constant region of human IgG1) VH: EVKLVESGGGLVQPGGSLKLSCAASGFTFSDYGMAWVRQAPRKGPEWVAFISNLAYSIYYADTVTGRFTISRENAKNTLYLEMSSLRSEDTAMYYCARLGYGNSFAYWGQGTLVTVSA VL: DIVMTQSPSSLTVTAGEKVTMSCKSSQSLLNSGNQKNYLTWYQQKPGQPPKLLIYWGSTRESGVPDRFTGSGSGTDFTLTISSVQAEDLAVYYCQNNYYYPLTFGAGTKLELK |
| 36000 | 248 | no binding | 324CHI (antibody, human IgG1, V domains shown, chimeric with the constant region of human IgG1) VH: EVKLVESGGGLVQPGGSLKLSCAASGFTFSDYGMAWVRQAPRKGPEWVAFISNLAYSIYYADTVTGRFTISRENAKNTLYLEMSSLRSEDTAMYYCARLGYGNSFAYWGQGTLVTVSA VL: DIVMTQSPSSLTVTAGEKVTMSCKSSQSLLNSGNQKNYLTWYQQKPGQPPKLLIYWGSTRESGVPDRFTGSGSGTDFTLTISSVQAEDLAVYYCQNELFYPLTFGAGTKLELK |
